Experiment [1] concerns the target acetylcholine receptor. Description: SPR, AchR immobilised on chip, peptide 10 uM. In general terms: Surface plasmon resonance follows binding to a sensor surface in real time, without labels.
Experiment [2] has as its target acetylcholine receptor. Description: SPR, AchR immobilised on CM5 chip, peptide at 10 uM.

Data on 71 molecules can be found in patent US20250011363A1, “OPTIMIZED SHORTENED PEPTIDE THAT BINDS TO ACETYLCHOLINE RECEPTOR, AND USE THEREOF” (SKINMED CO., LTD., priority 2021, published 2025).

B1: 6mer-1-252 (peptide)
peptide: RRWIRR
For B1, the Binding affinity (RU) in experiment [1] was found to be 131 RU.

B2: 5mer-860 (peptide)
peptide: RCHAK
Take B2: in experiment [2], the Binding affinity (RU) was found to be 31 RU.

B3: 5mer-871 (peptide)
peptide: RHSHR
Molecule B3 returned a Binding affinity (RU) in experiment [2] of 21 RU.

B4: 5mer-850 (peptide)
peptide: KYDIR
In experiment [2], B4 displayed a Binding affinity (RU) of 13 RU.

B5: 6mer-1-255 (peptide)
peptide: KKGFQK
Turning to B5, the Binding affinity (RU) in experiment [1] was 139 RU.

B6: 5mer-1166 (peptide)
peptide: KTHEK
For the molecule B6, the Binding affinity (RU) in experiment [2] amounted to 32 RU.

B7: 5mer-866 (peptide)
peptide: RINWR
As for B7, the Binding affinity (RU) in experiment [2] is 11 RU.

B8: 5mer-868 (peptide)
peptide: KMHFK
As for B8, the Binding affinity (RU) in experiment [2] was 18 RU.

B9: 5mer-861 (peptide)
peptide: KTKIR
Turning to B9, the Binding affinity (RU) in experiment [2] amounted to 20 RU.

B10: 6mer-1-258 (peptide)
peptide: KKLQYK
B10 had a Binding affinity (RU) in experiment [1] of 137 RU.

B11: 6mer-1-263 (peptide)
peptide: RKSYTK
On to B11, for which the Binding affinity (RU) in experiment [1] is 146 RU.

B12: 6mer-1-268 (peptide)
peptide: KRRQSK
Take B12: the Binding affinity (RU) in experiment [1] amounted to 144 RU.

B13: 6mer-1-257 (peptide)
peptide: RKWVTR
In turn, B13 displayed a Binding affinity (RU) in experiment [1] of 124 RU.

B14: 5mer-858 (peptide)
peptide: RIMGR
In experiment [2], B14 registered a Binding affinity (RU) of 33 RU.

B15: 5mer-1163 (peptide)
peptide: KKSKR
The molecule B15 registered a Binding affinity (RU) in experiment [2] of 12 RU.

B16: 5mer-856 (peptide)
peptide: KPPDR
As to B16, the Binding affinity (RU) in experiment [2] turned out to be 23 RU.

B17: 5mer-1160 (peptide)
peptide: KETWR
Take B17: the Binding affinity (RU) in experiment [2] was found to be 14 RU.

B18: 5mer-849 (peptide)
peptide: KTWMK
For the molecule B18, the Binding affinity (RU) in experiment [2] turned out to be 15 RU.

B19: 5mer-1164 (peptide)
peptide: RFPWR
On to B19, for which the Binding affinity (RU) in experiment [2] is 33 RU.

B20: 5mer-852 (peptide)
peptide: KDSMK
On to B20, for which the Binding affinity (RU) in experiment [2] is 22 RU.

B21: 5mer-1156 (peptide)
peptide: KKMNK
Take B21: in experiment [2], the Binding affinity (RU) came out at 13 RU.

B22: 5mer-1168 (peptide)
peptide: RHHWR
Take B22: in experiment [2], the Binding affinity (RU) came out at 31 RU.

B23: 5mer-862 (peptide)
peptide: KKNAK
B23 had a Binding affinity (RU) in experiment [2] of 19 RU.

B24: 6mer-1-247 (peptide)
peptide: KKVRQK
Take B24: in experiment [1], the Binding affinity (RU) stood at 122 RU.

B25: 5mer-1153 (peptide)
peptide: RDAPR
Turning to B25, in experiment [2], the Binding affinity (RU) worked out at 27 RU.

B26: 5mer-1162 (peptide)
peptide: KIKKK
In experiment [2], B26 gave a Binding affinity (RU) of 15 RU.

B27: 6mer-1-244 (peptide)
peptide: RRRVQK
With B27, the Binding affinity (RU) in experiment [1] is 144 RU.

B28: 5mer-870 (peptide)
peptide: RCKVK
B28 registered a Binding affinity (RU) in experiment [2] of 25 RU.

B29: 5mer-1150 (peptide)
peptide: KFTNR
Turning to B29, the Binding affinity (RU) in experiment [2] amounted to 12 RU.

B30: 5mer-853 (peptide)
peptide: RYHIK
As to B30, in experiment [2], the Binding affinity (RU) came out at 13 RU.

B31: 5mer-864 (peptide)
peptide: KYHPR
In the case of B31, in experiment [2], the Binding affinity (RU) came out at 25 RU.

B32: 5mer-854 (peptide)
peptide: RNTER
B32 had a Binding affinity (RU) in experiment [2] of 21 RU.

B33: 5mer-869 (peptide)
peptide: KKHPK
In experiment [2], B33 gave a Binding affinity (RU) of 31 RU.

B34: 5mer-1157 (peptide)
peptide: KTSHR
On to B34, for which the Binding affinity (RU) in experiment [2] is 21 RU.

B35: 6mer-1-261 (peptide)
peptide: KRWVTR
For the molecule B35, the Binding affinity (RU) in experiment [1] was 121 RU.

B36: 5mer-1165 (peptide)
peptide: RNMNR
With B36, the Binding affinity (RU) in experiment [2] is 21 RU.

B37: 5mer-1171 (peptide)
peptide: RCSWK
For B37, in experiment [2], the Binding affinity (RU) is 21 RU.

B38: 6mer-1-259 (peptide)
peptide: KRRYRK
In experiment [1], B38 yielded a Binding affinity (RU) of 141 RU.

B39: 5mer-855 (peptide)
peptide: RFMKK
In turn, B39 yielded a Binding affinity (RU) in experiment [2] of 18 RU.

B40: 6mer-1-251 (peptide)
peptide: RKVQSK
B40: the Binding affinity (RU) in experiment [1] worked out at 133 RU.

B41: 5mer-1158 (peptide)
peptide: KYNPR
Take B41: in experiment [2], the Binding affinity (RU) is 23 RU.

B42: 5mer-1149 (peptide)
peptide: KETDR
The molecule B42 came in with a Binding affinity (RU) in experiment [2] of 25 RU.

B43: 5mer-1154 (peptide)
peptide: KCWVR
Turning to B43, the Binding affinity (RU) in experiment [2] amounted to 12 RU.

B44: 6mer-1-260 (peptide)
peptide: RKQRTK
Molecule B44 registered a Binding affinity (RU) in experiment [1] of 141 RU.

B45: 6mer-1-253 (peptide)
peptide: RRVQLK
B45 returned a Binding affinity (RU) in experiment [1] of 145 RU.

B46: 6mer-1-262 (peptide)
peptide: RKQLQR
As to B46, the Binding affinity (RU) in experiment [1] came out at 139 RU.

B47: 6mer-1-254 (peptide)
peptide: RKSLSK
Molecule B47 registered a Binding affinity (RU) in experiment [1] of 137 RU.

B48: 6mer-1-256 (peptide)
peptide: KRVRTK
As for B48, the Binding affinity (RU) in experiment [1] was 125 RU.

B49: 5mer-851 (peptide)
peptide: KMCWK
In experiment [2], B49 showed a Binding affinity (RU) of 19 RU.

B50: 5mer-1151 (peptide)
peptide: KTNAR
In experiment [2], B50 came in with a Binding affinity (RU) of 26 RU.

B51: 6mer-1-246 (peptide)
peptide: RRLVSR
Molecule B51 gave a Binding affinity (RU) in experiment [1] of 122 RU.

B52: 6mer-1-267 (peptide)
peptide: KRRLLR
Take B52: the Binding affinity (RU) in experiment [1] was 139 RU.

B53: 6mer-1-249 (peptide)
peptide: RKGVSR
As for B53, the Binding affinity (RU) in experiment [1] was found to be 142 RU.

B54: 6mer-1-265 (peptide)
peptide: RKSVCR
For the molecule B54, in experiment [1], the Binding affinity (RU) is 145 RU.

B55: 6mer-1-245 (peptide)
peptide: RRGFRR
As for B55, in experiment [1], the Binding affinity (RU) is 142 RU.

B56: 5mer-1155 (peptide)
peptide: RYDMK
B56 yielded a Binding affinity (RU) in experiment [2] of 25 RU.

B57: 5mer-857 (peptide)
peptide: KMENR
Regarding B57, the Binding affinity (RU) in experiment [2] was 23 RU.

B58: 5mer-1169 (peptide)
peptide: KDTPK
In turn, B58 showed a Binding affinity (RU) in experiment [2] of 29 RU.

B59: 6mer-1-248 (peptide)
peptide: RRLIYK
B59 gave a Binding affinity (RU) in experiment [1] of 151 RU.

B60: 5mer-863 (peptide)
peptide: REANR
B60 returned a Binding affinity (RU) in experiment [2] of 16 RU.

B61: 6mer-1-266 (peptide)
peptide: KKGRLK
In turn, B61 showed a Binding affinity (RU) in experiment [1] of 144 RU.

B62: 5mer-1170 (peptide)
peptide: KHSEK
Molecule B62 returned a Binding affinity (RU) in experiment [2] of 28 RU.

B63: 6mer-1-250 (peptide)
peptide: RRVICR
B63 registered a Binding affinity (RU) in experiment [1] of 142 RU.

B64: 5mer-859 (peptide)
peptide: KHNAR
In experiment [2], B64 registered a Binding affinity (RU) of 26 RU.

B65: 6mer-1-264 (peptide)
peptide: RRQYQR
In turn, B65 had a Binding affinity (RU) in experiment [1] of 128 RU.

B66: 5mer-1159 (peptide)
peptide: KKWKK
As to B66, the Binding affinity (RU) in experiment [2] stood at 17 RU.

B67: 5mer-1167 (peptide)
peptide: KESWK
Regarding B67, the Binding affinity (RU) in experiment [2] worked out at 12 RU.

B68: 5mer-865 (peptide)
peptide: RMMER
Regarding B68, the Binding affinity (RU) in experiment [2] is 21 RU.

B69: 5mer-1161 (peptide)
peptide: KCHDR
Turning to B69, the Binding affinity (RU) in experiment [2] is 21 RU.

B70: 5mer-1152 (peptide)
peptide: KENFK
The molecule B70 came in with a Binding affinity (RU) in experiment [2] of 18 RU.

B71: 5mer-867 (peptide)
peptide: KDSWK
Consider B71, for which, in experiment [2], the Binding affinity (RU) came to 14 RU.
